# Laboratory results reported in US20230365705A1 (DYNAMICURE BIOTECHNOLOGY, published 2023).
# T1: Human CD93 recombinant protein (Sino Biological Inc, Catalog #12589-H08H) (human, UniProt Q9NPY3 22-580)
# T1 construct: Biotinylated (EZ-LINK NHS-PEG4 biotin) in the BLI assays; also called hCD93; His-tagged human CD93
# T1 sequence (looked up): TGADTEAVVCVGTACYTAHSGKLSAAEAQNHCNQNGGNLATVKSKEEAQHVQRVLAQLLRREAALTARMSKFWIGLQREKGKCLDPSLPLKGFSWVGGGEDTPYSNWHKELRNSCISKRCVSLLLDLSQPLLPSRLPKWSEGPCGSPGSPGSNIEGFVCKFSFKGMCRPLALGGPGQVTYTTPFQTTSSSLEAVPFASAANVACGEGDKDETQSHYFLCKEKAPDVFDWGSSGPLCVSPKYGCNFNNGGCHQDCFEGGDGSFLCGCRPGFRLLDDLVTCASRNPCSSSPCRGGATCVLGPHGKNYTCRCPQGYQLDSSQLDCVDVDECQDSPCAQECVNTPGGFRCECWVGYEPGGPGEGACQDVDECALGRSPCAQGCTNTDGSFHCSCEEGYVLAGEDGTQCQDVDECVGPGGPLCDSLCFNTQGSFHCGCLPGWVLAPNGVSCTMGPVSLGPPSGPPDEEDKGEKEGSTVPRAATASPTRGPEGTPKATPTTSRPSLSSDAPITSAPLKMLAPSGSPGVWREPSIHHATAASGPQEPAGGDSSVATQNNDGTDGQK
# T2: Human CD93 on cells (human CD93 expressing CHO cells; HUVEC, U937 and KG1a cells) (human, UniProt Q9NPY3 22-652)
# T2 construct: whole, on cells; also called hCD93 expressing CHO cells; hCD93 CHO cells
# T2 sequence (looked up): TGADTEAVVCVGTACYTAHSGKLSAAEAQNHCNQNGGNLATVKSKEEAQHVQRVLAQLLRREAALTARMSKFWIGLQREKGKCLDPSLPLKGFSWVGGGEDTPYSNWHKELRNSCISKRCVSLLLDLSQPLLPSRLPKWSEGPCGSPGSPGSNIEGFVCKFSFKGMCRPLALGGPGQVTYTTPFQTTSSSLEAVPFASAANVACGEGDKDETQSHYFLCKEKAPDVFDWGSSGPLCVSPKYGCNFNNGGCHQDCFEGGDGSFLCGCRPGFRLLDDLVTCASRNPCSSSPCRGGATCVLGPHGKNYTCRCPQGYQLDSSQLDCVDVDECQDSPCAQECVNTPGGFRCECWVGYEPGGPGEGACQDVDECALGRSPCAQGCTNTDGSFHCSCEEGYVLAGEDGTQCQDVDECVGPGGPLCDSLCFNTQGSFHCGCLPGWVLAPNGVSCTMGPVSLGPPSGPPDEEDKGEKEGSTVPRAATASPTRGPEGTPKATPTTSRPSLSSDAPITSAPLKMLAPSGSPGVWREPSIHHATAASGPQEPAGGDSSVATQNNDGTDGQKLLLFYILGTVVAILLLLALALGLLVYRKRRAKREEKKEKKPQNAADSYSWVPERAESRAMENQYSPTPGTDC
# Columns and labels:
# [1] = target: T1, Human CD93 recombinant protein (Sino …); experiment: ELISA, hCD93-His coated, OD450; unit printed as pmM
# Method: His-tagged human CD93 was coated onto a 96 well plate at 1 μg/mL in 1×PBS overnight at 4° C. The plate was washed with ELISA wash buffer (Boston BioProduct, Inc.) and the wells were blocked with ELISA blocking buffer for 1 hour at 37° C. Purified antibodies were serially diluted in ELISA blocking buffer (Boston BioProduct, Inc.) and incubated on the receptor for 1 hour at 37° C. The plate was washed with ELISA wash Buffer. […] The plate was washed with ELISA wash buffer. HRP substrate was added for indirect detection of the antibodies binding to CD93.
# [2] = target: T2, Human CD93 on cells (human CD93 …); experiment: flow cytometry, CHO-hCD93 cells, APC-A
# [3] = target: T2, Human CD93 on cells (human CD93 …); experiment: flow cytometry blocking assay, HUVEC cells; blocked ligand hIGFBP7-His 0.1 ug/ml; blocking activity runs from about 46 to about 72 % of control
# Method: After washing with FACS buffer twice, the samples were analyzed and data acquired in NovoCyte Flow.
# [4] = target: T2, Human CD93 on cells (human CD93 …); experiment: flow cytometry blocking assay, CHO-hCD93 cells; blocked ligand hMMRN2 495-674 at 0.1 ug/ml, APC anti-His
# Method: (§1) Then the cells were incubated with hMMRN2₄₉₅₋₆₇₄ at 0.1 μg/ml. […] After washing with FACS buffer twice, the samples were analyzed, and data acquired in NovoCyte Flow. Recombinant his tagged hMMRN2₄₉₅₋₆₇₄ was produced internally in E. Coli following routine procedure.
# [5] = target: T2, Human CD93 on cells (human CD93 …); experiment: flow cytometry blocking assay, CHO-hCD93 cells; blocked ligand hMMRN2 495-674 at 0.1 ug/ml; antibody stored 4 weeks at 40 C
# Method: as §1
# [6] = target: T1, Human CD93 recombinant protein (Sino …); experiment: BLI (Octet QKe), biotinylated human CD93 on streptavidin biosensors; antibody stored 2 weeks at 40 C
# Method: The binding affinity of anti-CD93 antibodies was determined with bio-layer interferometry using Octet QKe (Fortebio). […] Human CD93 recombinant protein (Sino Biological Inc, Catalog #12589-H08H) was biotinylated using EZ-LINK NHS-PEG4 biotin (Thermo Fisher Scientific). Streptavidin biosensors (Fortebio) were used to load biotinylated CD93 protein (300 seconds in 5 μg/ml). Baseline was stabilized for 60 seconds in 1× kinetics buffer (Fortebio) before anti-CD93 antibodies, at a serial dilution, were allowed to associate for 300 seconds with captured protein. Then the sensors were dissociated in 1× kinetics buffer for 600 seconds. […] (FIG. 42).
binder,measurement,setting,value
"16E4 (hybridoma) (antibody, IgG2a, V domains shown, also called 16E4 mAb; 16E4 mIgG2a) VH: QVQLQQPGAELVKPGASVKLSCKASGYTFTSYWMHWVKQRPGQGLEWIGEIDPSASYTYYNQKFKGKATLTVDKSSSTAYMQLSSLTSEDSAVYYCARSVYYGNKYFDVWGAGTTVTVSS VL: not shown",EC50,[1],0.112 nM
same,"M3 gate, % of cells",[2],98.7%
"h7F3 (humanized 7F3, VH3+VL3) (antibody, human IgG1, V domains shown, also called humanized 7F3-hIgG1) VH: QVQLVQSGAEVKKPGASVKVSCKASGYTFTDYEMHWVRQAPGQGLEWMGGIDPETGDTAYNQNFKGRVTMTTDTSTSTAYMELRSLTSDDTAVYYCTNYGNLYYYAMDYWGQGTSVTVSS VL: EIVLTQSPSSLSASVGDRVTITCRASSSVSSSYLHWYQQKPGKAPKLLIYSTSNLAFGVPSRFSGSGSGTSYTFTISSLQPEDIATYYCQQYSGYPLTFGSGTKLEIK",IC50,[3],1 nM
same,IC50,[4],0.173 nM
same,IC50,[5],0.153 nM
"h16E4 (humanized 16E4, VH4+VL6) (antibody, V domains shown, Detected with anti-human IgG, so a human Fc) VH: QVQLVQSGAEVKKPGASVKVSCKASGYTFTSYWMHWVRQAPGQGLEWMGEIDPSASYTYYNQKFKGRVTMTRDKSSSTVYMELSSLTSEDSAVYYCARSVYYGNKYFDVWGAGTTVTVSS VL: DIQMTQSPSTLSASVGDRVTITCKASQSVDYAGDSYMNWYQQKPGKAPKLLIYAASNLESGVPSRFSGSGSGTEFTLTISSLQPDDFATYYCQQTNEDPRTFGGGTKLEIK",Kd,[6],0.0204 nM
same,koff,[6],5.08e-06 s⁻¹
same,kon,[6],249000 M⁻¹ s⁻¹
